Here are results for 4 molecules from doi:10.1101/2022.04.12.487901 (bioRxiv, 2022).

The target of one series is T1, CHMP3_S75C (human, UniProt Q9Y3E7 9-183, S75C).
T1 sequence (looked up): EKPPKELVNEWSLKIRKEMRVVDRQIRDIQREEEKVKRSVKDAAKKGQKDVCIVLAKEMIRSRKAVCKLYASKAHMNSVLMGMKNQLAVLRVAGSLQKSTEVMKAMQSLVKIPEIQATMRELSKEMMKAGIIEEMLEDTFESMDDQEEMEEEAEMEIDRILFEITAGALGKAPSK
The series is described as follows: cross-linking.

The next series concerns the target T2, CHMP3_V110C (human, UniProt Q9Y3E7 9-183, V110C).
T2 sequence (looked up): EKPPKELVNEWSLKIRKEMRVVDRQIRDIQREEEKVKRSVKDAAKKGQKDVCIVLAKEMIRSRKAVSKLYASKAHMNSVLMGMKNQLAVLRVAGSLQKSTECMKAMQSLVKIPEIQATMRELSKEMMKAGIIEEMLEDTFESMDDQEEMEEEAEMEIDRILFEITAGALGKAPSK
The experiment in a line: cross-linking.

Series [1] addresses T3, CHMP3 full length (residues 1-222) (human, UniProt Q9Y3E7 1-222).
T3 sequence (looked up): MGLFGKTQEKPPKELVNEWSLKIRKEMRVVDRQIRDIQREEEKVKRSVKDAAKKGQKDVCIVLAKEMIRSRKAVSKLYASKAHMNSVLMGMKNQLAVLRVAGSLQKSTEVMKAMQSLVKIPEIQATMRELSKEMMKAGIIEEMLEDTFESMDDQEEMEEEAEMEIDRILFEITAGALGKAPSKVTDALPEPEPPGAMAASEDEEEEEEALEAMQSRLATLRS
The series is described as follows: cryo-EM structure.

The series “cryo-EM structure” deals with the molecule itself. The experiment in a line: cryo-EM structure.
The target in series [2] is T4, CHMP3_K112A, K119A, K132A, K136A (human, UniProt Q9Y3E7 9-183, K112A | K119A | K132A | K136A).
T4 sequence (looked up): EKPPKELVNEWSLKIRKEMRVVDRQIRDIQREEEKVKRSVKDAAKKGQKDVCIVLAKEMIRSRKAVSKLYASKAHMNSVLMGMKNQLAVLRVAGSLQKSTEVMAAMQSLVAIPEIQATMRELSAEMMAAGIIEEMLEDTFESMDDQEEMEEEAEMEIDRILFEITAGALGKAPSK
The series is described as follows: negative staining EM of polymer.

The target of series [3] is T3, CHMP3 full length (residues 1-222). The experiment in a line: negative staining EM of polymer.

B1: CHMP2A_D57C (domain or fragment, human, UniProt O43633 9-161, looked up)
chain: KTPEELLRQNQRALNRAMRELDRERQKLETQEKKIIADIKKMAKQGQMCAVRIMAKDLVRTRRYVRKFVLMRANIQAVSLKIQTLKSNNSMAQAMKGVTKAMGTMNRQLKLPQIQKIMMEFERQAEIMDMKEEMMNDAIDDAMGDEEDEEESD
As for B1, in the series with CHMP3_S75C, the binding result is given as “binds”.

B2: CHMP2A_N18C (domain or fragment, human, UniProt O43633 9-161, looked up)
chain: KTPEELLRQCQRALNRAMRELDRERQKLETQEKKIIADIKKMAKQGQMDAVRIMAKDLVRTRRYVRKFVLMRANIQAVSLKIQTLKSNNSMAQAMKGVTKAMGTMNRQLKLPQIQKIMMEFERQAEIMDMKEEMMNDAIDDAMGDEEDEEESD
Regarding B2, the binding result with CHMP3_V110C was “binds”.

B3: CHMP2AΔC (C-terminally truncated CHMP2A, residues 1-161), MBP removed (domain or fragment, human, UniProt O43633 1-161, looked up)
chain: MDLLFGRRKTPEELLRQNQRALNRAMRELDRERQKLETQEKKIIADIKKMAKQGQMDAVRIMAKDLVRTRRYVRKFVLMRANIQAVSLKIQTLKSNNSMAQAMKGVTKAMGTMNRQLKLPQIQKIMMEFERQAEIMDMKEEMMNDAIDDAMGDEEDEEESD
Consider B3, for which the binding result (in series [1]; in “cryo-EM structure”) was “binds” each time.

B4: CHMP2AΔC (residues 1-161) wild type, MBP fusion as used for tube formation without membrane coating (domain or fragment, human, UniProt O43633 1-161, looked up)
chain: MDLLFGRRKTPEELLRQNQRALNRAMRELDRERQKLETQEKKIIADIKKMAKQGQMDAVRIMAKDLVRTRRYVRKFVLMRANIQAVSLKIQTLKSNNSMAQAMKGVTKAMGTMNRQLKLPQIQKIMMEFERQAEIMDMKEEMMNDAIDDAMGDEEDEEESD
With B4, the binding result in series [2] and in series [3] was “binds” in each case.
